Experiments:
[1] = test system: stapled (cyclic) beta2-beta3 loop peptide L44C, F56C (synthetic); assay: flow; conditions: 25 C, E. coli surface display, apparent Kd
[2] = test system: Tat peptide (basic domain) (Human immunodeficiency virus 1); conditions: method of this Kd not stated
[3] = target: TBP6.7 R47A R47A (in TBP6.7 Y31H/Q36R) (Homo sapiens) (UniProt P09012); assay: ITC; conditions: 20 C; estimate, low c-value
[4] = target: TBP6.7 Q48T Q48T (in TBP6.7 Y31H/Q36R) (Homo sapiens) (UniProt P09012); assay: ITC; conditions: 20 C
Sequence of TBP6.7 Q48T Q48T (in TBP6.7 Y31H/Q36R) (Homo sapiens) (P09012 whole entry, stated change not applied): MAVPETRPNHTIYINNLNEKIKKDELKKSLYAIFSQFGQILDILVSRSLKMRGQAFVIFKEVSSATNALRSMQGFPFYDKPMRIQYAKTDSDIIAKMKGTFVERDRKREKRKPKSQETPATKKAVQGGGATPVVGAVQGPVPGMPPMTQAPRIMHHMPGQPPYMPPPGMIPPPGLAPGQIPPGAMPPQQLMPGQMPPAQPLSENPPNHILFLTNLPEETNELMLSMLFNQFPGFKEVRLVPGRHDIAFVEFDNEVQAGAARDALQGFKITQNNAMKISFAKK

[5] = target: TBP6.7 Q54A Q54A (in TBP6.7 Y31H/Q36R) (Homo sapiens) (UniProt P09012); assay: ITC; conditions: 20 C
Sequence of TBP6.7 Q54A Q54A (in TBP6.7 Y31H/Q36R) (Homo sapiens) (P09012 1-98 Y31H/Q36R/Q54A): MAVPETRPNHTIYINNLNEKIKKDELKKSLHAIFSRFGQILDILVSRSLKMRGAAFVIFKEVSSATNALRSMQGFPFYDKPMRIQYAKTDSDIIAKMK

[6] = target: TBP6.7 P46A P46A (in TBP6.7 Y31H/Q36R) (Homo sapiens) (UniProt P09012); assay: ITC; conditions: 20 C
Sequence of TBP6.7 P46A P46A (in TBP6.7 Y31H/Q36R) (Homo sapiens) (P09012 whole entry, stated change not applied, the tested form may be a part): as the sequence (P09012 whole entry, stated change not applied) above

[7] = test system: TBP6.7 deltaC truncated after residue 90 (in TBP6.7 Y31H/Q36R) (Homo sapiens); assay: ITC; conditions: 20 C
[8] = target: TBP6.7 R52A R52A (in TBP6.7 Y31H/Q36R) (Homo sapiens) (UniProt P09012); assay: ITC; conditions: 20 C
Sequence of TBP6.7 R52A R52A (in TBP6.7 Y31H/Q36R) (Homo sapiens) (P09012 1-98 Y31H/Q36R/R52A): as the sequence (P09012 1-98 Y31H/Q36R/Q54A) above, with R52A, A54Q counted along it

[9] = target: TBP6.7 R49A R49A (in TBP6.7 Y31H/Q36R) (Homo sapiens) (UniProt P09012); assay: ITC; conditions: 20 C
Sequence of TBP6.7 R49A R49A (in TBP6.7 Y31H/Q36R) (Homo sapiens) (P09012 whole entry, stated change not applied): as the sequence (P09012 whole entry, stated change not applied) above

[10] = target: TBP6.7 Q48A Q48A (in TBP6.7 Y31H/Q36R) (Homo sapiens) (UniProt P09012); assay: ITC; conditions: 20 C
Sequence of TBP6.7 Q48A Q48A (in TBP6.7 Y31H/Q36R) (Homo sapiens) (P09012 other isoform, or with tags, fused parts or gaps Q48A Q48A Y31H Q36R): as the sequence (P09012 1-98 Y31H/Q36R/Q54A) above, with H31Y, R36Q, A54Q, Y78H counted along it

[11] = target: TBP6.7 T50A T50A (in TBP6.7 Y31H/Q36R) (Homo sapiens) (UniProt P09012); assay: ITC; conditions: 20 C; error printed as XX
Sequence of TBP6.7 T50A T50A (in TBP6.7 Y31H/Q36R) (Homo sapiens) (P09012 whole entry, stated change not applied): as the sequence (P09012 whole entry, stated change not applied) above

[12] = test system: TBP6.7 (U1A-derived TAR binding protein, crystallization variant) (Homo sapiens); assay: ITC
[13] = target: TBP6.7 P51A P51A (in TBP6.7 Y31H/Q36R) (Homo sapiens) (UniProt P09012); assay: ITC; conditions: 20 C
Sequence of TBP6.7 P51A P51A (in TBP6.7 Y31H/Q36R) (Homo sapiens) (P09012 whole entry, stated change not applied): as above

[14] = target: TBP6.7 R47K R47K (in TBP6.7 Y31H/Q36R) (Homo sapiens) (UniProt P09012); assay: ITC; conditions: 20 C
Sequence of TBP6.7 R47K R47K (in TBP6.7 Y31H/Q36R) (Homo sapiens) (P09012 1-98 Y31H/Q36R/R47K): as the sequence (P09012 1-98 Y31H/Q36R/Q54A) above, with R47K, A54Q counted along it

Sequence of TBP6.7 R47A R47A (in TBP6.7 Y31H/Q36R) (Homo sapiens) (P09012 1-98 Y31H/Q36R/R47A): as the sequence (P09012 1-98 Y31H/Q36R/Q54A) above, with R47A, A54Q counted along it

Substance: HIV-1 TAR RNA
- Kd [1]: 80 nM
- Kd [2]: 260 nM
- Kd [3]: 1520 nM
- Kd [4]: 3.6 nM
- Kd [5]: 7.2 nM
- Kd [6]: 11.7 nM
- Kd [7]: 12 nM
- Kd [8]: 290 nM
- Kd [9]: 710 nM
- Kd [10]: 5.5 nM
- Kd [11]: 11.4 nM
- Kd ([12]; 20 C, n=0.99): 2.5 nM
- Kd ([12]; 37 C, 0.05 M NaCl, 0.05 M KCl, 2 mM MgCl2, 2 mM beta-mercaptoethanol, pH 7.5, estimate of about 0.7 nM at 20 C in same example): 18.5 nM
- Kd [13]: 10.8 nM
- Kd [14]: 156 nM
